From US20170267766A1 come the findings set out here.

Test [1] concerns the target rmIGF-1R protein (R&D Systems, cat No 6630-GR/Fc) (murine) (UniProt Q60751). The test can be described thus: ELISA, coated rm IGF-1R, 5 ug/ml. For orientation: An ELISA detects its analyte on a solid surface through an enzyme-linked reagent.
Test [2] concerns the target rhIGF-1R protein (R&D Systems, Cat No 391-GR) (human) (UniProt P08069). Description: ELISA, coated rh IGF-1R, 5 ug/ml.
For test [3], the target named is rhIR protein (R&D Systems, cat No 1544-IR/CF) (human) (UniProt P06213). Description: ELISA, coated rh Insulin R, 5 ug/ml.
Chain of rhIR protein (R&D Systems, cat No 1544-IR/CF) (human) (P06213 other isoform, or with tags, fused parts or gaps limits assumed): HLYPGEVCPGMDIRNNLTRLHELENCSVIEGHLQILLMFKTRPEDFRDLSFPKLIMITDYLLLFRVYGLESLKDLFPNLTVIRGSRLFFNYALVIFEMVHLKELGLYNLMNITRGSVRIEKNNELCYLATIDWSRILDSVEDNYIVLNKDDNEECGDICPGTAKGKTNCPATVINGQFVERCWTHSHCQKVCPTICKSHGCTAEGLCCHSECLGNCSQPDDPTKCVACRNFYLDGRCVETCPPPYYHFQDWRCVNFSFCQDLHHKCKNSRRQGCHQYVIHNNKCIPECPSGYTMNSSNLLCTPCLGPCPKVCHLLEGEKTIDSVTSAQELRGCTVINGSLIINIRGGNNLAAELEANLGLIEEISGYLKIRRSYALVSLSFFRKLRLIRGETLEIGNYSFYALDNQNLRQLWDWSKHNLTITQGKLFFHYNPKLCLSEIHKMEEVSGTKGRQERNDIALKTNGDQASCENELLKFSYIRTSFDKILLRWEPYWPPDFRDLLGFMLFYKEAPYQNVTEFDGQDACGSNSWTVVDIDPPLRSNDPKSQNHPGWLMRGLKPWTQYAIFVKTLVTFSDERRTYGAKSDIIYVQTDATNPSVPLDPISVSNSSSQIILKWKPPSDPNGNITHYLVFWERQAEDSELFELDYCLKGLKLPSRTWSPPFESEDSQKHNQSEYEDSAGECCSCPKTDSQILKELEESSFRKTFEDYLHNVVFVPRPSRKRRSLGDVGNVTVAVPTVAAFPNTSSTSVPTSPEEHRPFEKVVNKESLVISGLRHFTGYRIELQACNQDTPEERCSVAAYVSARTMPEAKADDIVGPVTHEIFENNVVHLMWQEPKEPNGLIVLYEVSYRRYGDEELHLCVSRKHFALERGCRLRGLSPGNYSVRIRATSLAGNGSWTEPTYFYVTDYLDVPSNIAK

Chain of rmIGF-1R protein (R&D Systems, cat No 6630-GR/Fc) (murine) (Q60751 31-936): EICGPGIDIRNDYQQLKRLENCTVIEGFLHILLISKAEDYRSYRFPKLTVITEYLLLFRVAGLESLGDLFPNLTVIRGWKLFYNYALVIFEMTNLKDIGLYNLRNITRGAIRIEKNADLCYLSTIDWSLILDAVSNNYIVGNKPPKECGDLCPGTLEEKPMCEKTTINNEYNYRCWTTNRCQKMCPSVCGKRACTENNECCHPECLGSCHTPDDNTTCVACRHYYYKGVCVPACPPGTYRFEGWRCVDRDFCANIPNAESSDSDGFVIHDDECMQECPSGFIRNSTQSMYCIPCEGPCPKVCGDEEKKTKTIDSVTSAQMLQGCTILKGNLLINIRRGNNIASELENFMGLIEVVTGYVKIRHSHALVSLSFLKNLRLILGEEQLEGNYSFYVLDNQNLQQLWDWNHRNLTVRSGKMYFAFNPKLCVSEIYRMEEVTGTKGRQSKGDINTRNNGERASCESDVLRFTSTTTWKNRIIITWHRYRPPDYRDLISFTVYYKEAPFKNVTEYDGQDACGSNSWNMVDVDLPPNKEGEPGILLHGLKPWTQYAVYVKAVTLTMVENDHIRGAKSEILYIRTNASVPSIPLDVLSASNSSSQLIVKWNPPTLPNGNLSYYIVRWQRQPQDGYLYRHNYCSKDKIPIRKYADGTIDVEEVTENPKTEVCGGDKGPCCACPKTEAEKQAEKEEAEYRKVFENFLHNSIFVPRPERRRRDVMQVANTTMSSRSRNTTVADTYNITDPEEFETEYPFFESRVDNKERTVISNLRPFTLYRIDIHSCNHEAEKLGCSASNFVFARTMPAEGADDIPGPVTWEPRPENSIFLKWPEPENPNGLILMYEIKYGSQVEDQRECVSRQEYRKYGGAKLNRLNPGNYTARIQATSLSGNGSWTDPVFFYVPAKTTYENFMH

Consider mIgG1 (antibody), for which the values for the D.O 450 nm in test [1], in test [2] and in test [3] were 0.116 D.O 450 nm, 0.093 D.O 450 nm and 0.127 D.O 450 nm, respectively.
